For this data set, the system named is HrrA (phosphorylated response regulator) (Corynebacterium glutamicum ATCC 13032). Nature of the data set: EMSA. To be noted: 20 mM Tris-HCl pH 7.5, 50 mM KCl, 10 mM MgCl2, 5% glycerol, 0.5 mM EDTA, 0.005% Triton X-100, 20 min, room temperature, 10 nM DNA with 5-1000 nM HrrA …. (In general: A gel shift assay detects complexes by their altered migration in electrophoresis.)

Take PhmuO: the Kd (apparent Kd) was found to be 0.196 µM. For PcydA (Pcyd), the Kd (apparent Kd) worked out at 0.35 µM. As for PsigC/katA, where the note is “apparent Kd (text misprints 270 μM)”, the Kd was found to be 0.271 µM. On to PctaE, for which, under “apparent Kd”, the Kd was found to be 0.125 µM.

These data come from PMC7337898.
